± gives the uncertainty stated by the source.
Assay: protein stability index of a GFP-peptide fusion (yeast GPS) (PSI 1-4); higher = more stable; sorted into four equal gates, so the index is relative within each strain
Summary of the method: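 Peptides tiling yeast proteins in 17-residue segments were fused downstream of GFP, with Cherry expressed from the same plasmid. As a pooled library in yeast, mid-log cultures grown in leucine-free medium were sorted into four equal gates by GFP/Cherry fluorescence ratio. Gate plasmids were PCR-amplified and Illumina-sequenced, and barcodes linked reads to strains. Each peptide received a protein stability index equal to the sum of each gate's read frequency times its gate number.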

LLRRLKKDVEKELPDKV [SNF2]
protein stability index (pdr5∆): 3.67 ± 0.24 | protein stability index (san1∆): 3.36 ± 0.092 | protein stability index (ubr1∆): 3.38 ± 0.12

DVSQLIAGINKKKGLDE [PRP28]
protein stability index (doa10∆): 3.43 ± 0.095 | protein stability index (pdr5∆): 3.64 ± 0.11 | protein stability index (san1∆): 3.29 ± 0.086 | protein stability index (ubr1∆): 3.76 ± 0.11

KETWLHELSSSHTSLVK [SRB8]
protein stability index (doa10∆): 1.81 ± 0.05 | protein stability index (pdr5∆): 2.04 ± 0.056 | protein stability index (san1∆): 1.87 ± 0.083 | protein stability index (ubr1∆): 1.8 ± 0.055

LDEVDAALDITNVQRIA [SMC1]
protein stability index (doa10∆): 3.16 ± 0.096 | protein stability index (pdr5∆): 3.06 ± 0.098 | protein stability index (san1∆): 3.14 ± 0.1 | protein stability index (ubr1∆): 3.16 ± 0.087

KTQFSWQYYYYTLTEEG [RPS10A]
protein stability index (doa10∆): 2.06 ± 0.065 | protein stability index (pdr5∆): 2.33 ± 0.052 | protein stability index (san1∆): 2.59 ± 0.054 | protein stability index (ubr1∆): 2.35 ± 0.058

IEEAKSIRRQDYINELS [REC8]
protein stability index (pdr5∆): 3.11 ± 0.22 | protein stability index (san1∆): 3.39 ± 0.16 | protein stability index (ubr1∆): 3.14 ± 0.17

LEQFMERNNIGEICKNY [YDL116W/NUP84]
protein stability index (doa10∆): 2.69 ± 0.11 | protein stability index (pdr5∆): 2.6 ± 0.076 | protein stability index (san1∆): 2.72 ± 0.14 | protein stability index (ubr1∆): 2.44 ± 0.069

FELSFTGAPPYYYNTKI [YMR129W/POM152]
protein stability index (doa10∆): 2.75 ± 0.089 | protein stability index (pdr5∆): 1.99 ± 0.12 | protein stability index (san1∆): 2.66 ± 0.15 | protein stability index (ubr1∆): 3.21 ± 0.12

LASIPDIFITPTPVVTI [SSN2]
protein stability index (doa10∆): 1.71 ± 0.054 | protein stability index (pdr5∆): 1.65 ± 0.054 | protein stability index (san1∆): 1.45 ± 0.098 | protein stability index (ubr1∆): 1.63 ± 0.044

FNTFWDEKGNEIKVGKQ [ARP9]
protein stability index (doa10∆): 3.24 ± 0.099 | protein stability index (pdr5∆): 2.53 ± 0.089 | protein stability index (san1∆): 2.88 ± 0.089 | protein stability index (ubr1∆): 2.52 ± 0.059

MPLKILLATKQHDSSAN [CSN12]
protein stability index (doa10∆): 2.48 ± 0.076 | protein stability index (pdr5∆): 1.97 ± 0.044 | protein stability index (san1∆): 2.09 ± 0.063 | protein stability index (ubr1∆): 2.27 ± 0.044

GKRQVLLRPSSKVIIKF [RPS22B]
protein stability index (doa10∆): 2.83 ± 0.1 | protein stability index (pdr5∆): 2.21 ± 0.055 | protein stability index (san1∆): 3.25 ± 0.057 | protein stability index (ubr1∆): 2.15 ± 0.049

EVKLKASLKKMEETEQK [SMC3]
protein stability index (pdr5∆): 3.16 ± 0.15 | protein stability index (san1∆): 3.2 ± 0.17 | protein stability index (ubr1∆): 3.53 ± 0.25

SGEDVIIGKTTPISPDE [RPB2]
protein stability index (doa10∆): 3.26 ± 0.21 | protein stability index (san1∆): 3.49 ± 0.083 | protein stability index (ubr1∆): 3.35 ± 0.085

VFQAKMMDMLKQTGRDQ [RPN11]
protein stability index (doa10∆): 2.56 ± 0.061 | protein stability index (pdr5∆): 2.58 ± 0.07 | protein stability index (san1∆): 2.52 ± 0.077 | protein stability index (ubr1∆): 2.96 ± 0.062

GGIETILEHTLFKGTGF [PRP8]
protein stability index (doa10∆): 3.3 ± 0.22 | protein stability index (pdr5∆): 3.28 ± 0.21 | protein stability index (san1∆): 3.21 ± 0.14 | protein stability index (ubr1∆): 3.47 ± 0.13

FLTPMDSIDLAPNTLTN [YML103C/NUP188]
protein stability index (doa10∆): 1.51 ± 0.18 | protein stability index (pdr5∆): 1.68 ± 0.1 | protein stability index (san1∆): 1.98 ± 0.18 | protein stability index (ubr1∆): 1.26 ± 0.082

WALKSSLNSMTNAKLPN [RGR1]
protein stability index (doa10∆): 2.74 ± 0.092 | protein stability index (pdr5∆): 2.77 ± 0.13 | protein stability index (san1∆): 3.17 ± 0.052 | protein stability index (ubr1∆): 2.39 ± 0.05

LDVDPAKRIRVSHHATT [RPB2]
protein stability index (doa10∆): 3.02 ± 0.06 | protein stability index (pdr5∆): 3.04 ± 0.06 | protein stability index (san1∆): 2.79 ± 0.082 | protein stability index (ubr1∆): 3 ± 0.044

YPMMHQVRNQVFMLDTK [RGR1]
protein stability index (doa10∆): 2.25 ± 0.08 | protein stability index (pdr5∆): 2.35 ± 0.08 | protein stability index (san1∆): 2.3 ± 0.081 | protein stability index (ubr1∆): 2.75 ± 0.068

LNRFNFQNTNTRSALKL [QCR2]
protein stability index (doa10∆): 2.71 ± 0.076 | protein stability index (pdr5∆): 2.91 ± 0.069 | protein stability index (san1∆): 2.83 ± 0.075 | protein stability index (ubr1∆): 2.62 ± 0.074

TSRKALEEVSLKWIDTA [RPL3]
protein stability index (doa10∆): 1.67 ± 0.098 | protein stability index (pdr5∆): 1.89 ± 0.094 | protein stability index (san1∆): 1.82 ± 0.12 | protein stability index (ubr1∆): 1.9 ± 0.088

SVIPLKGRYAPETGDHV [RRP4]
protein stability index (doa10∆): 2.53 ± 0.059 | protein stability index (pdr5∆): 2.52 ± 0.052 | protein stability index (san1∆): 2.67 ± 0.073 | protein stability index (ubr1∆): 2.69 ± 0.041

AATVRSTIRRLREMVEA [RPL43A]
protein stability index (doa10∆): 3.02 ± 0.084 | protein stability index (pdr5∆): 2.8 ± 0.056 | protein stability index (san1∆): 2.74 ± 0.086 | protein stability index (ubr1∆): 3.09 ± 0.064

PSLEVASEYIETLGLKY [FAS1]
protein stability index (doa10∆): 3.02 ± 0.069 | protein stability index (pdr5∆): 3.3 ± 0.082 | protein stability index (san1∆): 3.21 ± 0.07 | protein stability index (ubr1∆): 3.05 ± 0.067

IPRNSPLSDLKKRSQAK [RPC82]
protein stability index (doa10∆): 2.65 ± 0.26 | protein stability index (pdr5∆): 3.17 ± 0.22

AQYFYSGAYSYPDFRHY [DIS3]
protein stability index (doa10∆): 1.43 ± 0.056 | protein stability index (pdr5∆): 1.43 ± 0.09 | protein stability index (san1∆): 1.87 ± 0.16 | protein stability index (ubr1∆): 1.56 ± 0.081

SNEDVMMTGAEQDPYSN [RPB3]
protein stability index (doa10∆): 3.09 ± 0.092 | protein stability index (pdr5∆): 3.09 ± 0.079 | protein stability index (san1∆): 3.19 ± 0.085 | protein stability index (ubr1∆): 3.12 ± 0.073

IYFTVPNEFEIQLSTVN [RGR1]
protein stability index (doa10∆): 2.21 ± 0.064 | protein stability index (pdr5∆): 2.22 ± 0.058 | protein stability index (san1∆): 1.88 ± 0.061 | protein stability index (ubr1∆): 2.2 ± 0.042

SPSYSPTSPAYSPTSPS [RPO21]
protein stability index (doa10∆): 2.93 ± 0.05 | protein stability index (pdr5∆): 2.85 ± 0.052 | protein stability index (san1∆): 2.81 ± 0.048 | protein stability index (ubr1∆): 3.08 ± 0.032

PMVSVMKMDKSPTESYS [RPT2]
protein stability index (doa10∆): 1.64 ± 0.11 | protein stability index (pdr5∆): 1.57 ± 0.088 | protein stability index (san1∆): 1.11 ± 0.2 | protein stability index (ubr1∆): 1.71 ± 0.093

ARVLFDDMVEYEDGTPA [CYT1]
protein stability index (doa10∆): 3.47 ± 0.17 | protein stability index (pdr5∆): 3.09 ± 0.096 | protein stability index (san1∆): 3.24 ± 0.085 | protein stability index (ubr1∆): 3.48 ± 0.11

MKVEVDSFSGAKIYPGR [RPL24B]
protein stability index (doa10∆): 3.11 ± 0.18 | protein stability index (pdr5∆): 3.36 ± 0.15 | protein stability index (san1∆): 2.52 ± 0.18 | protein stability index (ubr1∆): 2.92 ± 0.18

FEAAVKMSDGFNGADIR [RPT4]
protein stability index (doa10∆): 3.66 ± 0.18 | protein stability index (pdr5∆): 3.46 ± 0.091 | protein stability index (san1∆): 3.34 ± 0.053 | protein stability index (ubr1∆): 3.39 ± 0.09

NKTVNEAAKPSLSFGSG [YJL041W/NSP1]
protein stability index (doa10∆): 3.5 ± 0.13 | protein stability index (pdr5∆): 3.01 ± 0.083 | protein stability index (san1∆): 2.08 ± 0.21 | protein stability index (ubr1∆): 3.21 ± 0.078

LQETLNKSTSSEAEYSK [YIL149C/MLP2]
protein stability index (doa10∆): 3.11 ± 0.08 | protein stability index (pdr5∆): 2.9 ± 0.081 | protein stability index (san1∆): 3.27 ± 0.062 | protein stability index (ubr1∆): 3.28 ± 0.068

QTLLQRSEDPAGLGKTN [YGR119C/NUP57]
protein stability index (doa10∆): 3.31 ± 0.084 | protein stability index (pdr5∆): 3.12 ± 0.11 | protein stability index (san1∆): 3.27 ± 0.078 | protein stability index (ubr1∆): 3.39 ± 0.091

GKASLFAQGKRRYDRKQ [RPL42A]
protein stability index (doa10∆): 3.28 ± 0.11 | protein stability index (pdr5∆): 3.09 ± 0.1 | protein stability index (san1∆): 3.4 ± 0.088 | protein stability index (ubr1∆): 3.4 ± 0.072

ASVTKEILGTAQSVGCR [RPL12A]
protein stability index (doa10∆): 1.35 ± 0.087 | protein stability index (pdr5∆): 1.51 ± 0.044 | protein stability index (san1∆): 1.35 ± 0.082 | protein stability index (ubr1∆): 1.61 ± 0.082

SEKLITKYFEPTSTENN [ECM29]
protein stability index (doa10∆): 2.87 ± 0.076 | protein stability index (pdr5∆): 3.09 ± 0.066 | protein stability index (san1∆): 3.04 ± 0.035 | protein stability index (ubr1∆): 2.97 ± 0.041

IKDSVREVGTKFTTVLA [ECM29]
protein stability index (doa10∆): 2.77 ± 0.084 | protein stability index (pdr5∆): 2.6 ± 0.07 | protein stability index (san1∆): 2.22 ± 0.078 | protein stability index (ubr1∆): 2.42 ± 0.05

LIIDGQIIFGVVEKKTV [RPO21]
protein stability index (doa10∆): 1.37 ± 0.087 | protein stability index (pdr5∆): 1.38 ± 0.065 | protein stability index (san1∆): 1.2 ± 0.2 | protein stability index (ubr1∆): 1.54 ± 0.07

FKSTESNISDEKSRISE [YMR129W/POM152]
protein stability index (doa10∆): 3.3 ± 0.2 | protein stability index (pdr5∆): 3.01 ± 0.16 | protein stability index (san1∆): 2.78 ± 0.12 | protein stability index (ubr1∆): 3.05 ± 0.17

RFVLSDDYSNLKREERQ [SMC3]
protein stability index (doa10∆): 2.27 ± 0.085 | protein stability index (pdr5∆): 2.65 ± 0.081 | protein stability index (san1∆): 2.43 ± 0.093 | protein stability index (ubr1∆): 2.7 ± 0.059

TAEAPTLSFNFSQKANK [YOR098C/NUP1]
protein stability index (doa10∆): 3.27 ± 0.081 | protein stability index (pdr5∆): 3.27 ± 0.086 | protein stability index (san1∆): 3.24 ± 0.056 | protein stability index (ubr1∆): 3.26 ± 0.085

AAEFRYKYGYDMPCDVL [SCL1]
protein stability index (doa10∆): 2.64 ± 0.078 | protein stability index (pdr5∆): 2.79 ± 0.057 | protein stability index (san1∆): 2.69 ± 0.054 | protein stability index (ubr1∆): 2.33 ± 0.059

KAEMPPEHLRKIINTHS [PRP8]
protein stability index (doa10∆): 1.94 ± 0.089 | protein stability index (pdr5∆): 1.74 ± 0.058 | protein stability index (san1∆): 1.82 ± 0.12 | protein stability index (ubr1∆): 1.89 ± 0.061

HKVTQKKDIKIGTNDLF [SIR4]
protein stability index (doa10∆): 2.63 ± 0.12 | protein stability index (pdr5∆): 2.61 ± 0.11 | protein stability index (san1∆): 2.7 ± 0.072 | protein stability index (ubr1∆): 2.27 ± 0.13

MTTEDPDSNHLSSETGI [SRB4]
protein stability index (doa10∆): 3.15 ± 0.12 | protein stability index (pdr5∆): 2.85 ± 0.2 | protein stability index (san1∆): 3.37 ± 0.076 | protein stability index (ubr1∆): 3.04 ± 0.081

KVISSDARGVIGVIAGG [RPL2A]
protein stability index (doa10∆): 2.81 ± 0.086 | protein stability index (pdr5∆): 2.82 ± 0.091 | protein stability index (san1∆): 2.85 ± 0.1 | protein stability index (ubr1∆): 2.84 ± 0.12

QCCEFMTMLTPNYLHLV [YML103C/NUP188]
protein stability index (doa10∆): 2.23 ± 0.05 | protein stability index (pdr5∆): 1.77 ± 0.045 | protein stability index (san1∆): 1.66 ± 0.084 | protein stability index (ubr1∆): 1.68 ± 0.041

PSAVAGFINQKNLKPQE [YIL149C/MLP2]
protein stability index (doa10∆): 3.16 ± 0.099 | protein stability index (pdr5∆): 3.1 ± 0.084 | protein stability index (san1∆): 2.98 ± 0.05 | protein stability index (ubr1∆): 3.02 ± 0.042
